Details: Homo sapiens, pH 7.5, Thermal, CD, Tris-HCl 20mM, whole UniProt chain shown

B1: Guanylyl cyclase-activating protein 1 wild type, P43080 (protein)
chain: MGNVMEGKSVEELSSTECHQWYKKFMTECPSGQLTLYEFRQFFGLKNLSPSASQYVEQMFETFDFNKDGYIDFMEYVAALSLVLKGKVEQKLRWYFKLYDVDGNGCIDRDELLTIIQAIRAINPCSDTTMTAEEFTDTVFSKIDVNGDGELSLEEFIEGVQKDQMLLDTLTRSLDLTRIVRRLQNGEQDEEGADEAAEAAG
B1 showed a Tm (KCL 150 mM) of 49.8 °C and a Tm (KCL and Mg2+ 150 mM and 1 mM) of 50.3 °C.

Reference: FireProtDB (doi:10.3390/ijms21030752)
